Measurements taken from article PMC10933344, “A lncRNA Dleu2-encoded peptide relieves autoimmunity by facilitating Smad3-mediated Treg induction” (EMBO Reports, 2024).
Where no end group is shown, it is not given here.

Target: T1, Smad3, recombinant (pET28a) (UniProt Q8BUN5 1-425)
T1 construct: the His tag is inferred from the vector only; also called free Smad3; source: bacterial overexpression (pET28a), purified
Experiment: BLI; Octet RED96; 50 ug/ml Biotin-labeled Dleu2-17aa immobilised on streptavidin biosensors; 100 mM Tris-HCl pH 8.0, 20 mM MgCl2, 200 mM KCl, 0.1 mg/mL BSA; Smad3 at 1.67-53.3 uM, association 800 s, dissociation in DPBS (0.5% BSA) 180 s; RT
Conditions: both partners purified

T1 sequence (Q8BUN5 whole entry): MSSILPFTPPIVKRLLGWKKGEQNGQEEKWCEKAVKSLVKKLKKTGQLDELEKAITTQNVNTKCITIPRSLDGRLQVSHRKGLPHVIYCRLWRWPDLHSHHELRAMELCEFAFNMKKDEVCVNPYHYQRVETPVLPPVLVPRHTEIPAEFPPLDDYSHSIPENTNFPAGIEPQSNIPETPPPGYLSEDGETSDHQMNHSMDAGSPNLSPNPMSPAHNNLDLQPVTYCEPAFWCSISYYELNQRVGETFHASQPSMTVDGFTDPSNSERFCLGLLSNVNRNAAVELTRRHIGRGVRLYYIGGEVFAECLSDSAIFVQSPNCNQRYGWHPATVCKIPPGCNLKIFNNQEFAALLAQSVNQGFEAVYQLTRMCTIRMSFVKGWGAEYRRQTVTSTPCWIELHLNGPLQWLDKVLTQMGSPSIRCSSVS

Kd: 2430 nM
B1: Biotin-labeled Dleu2-17aa (peptide)
peptide: MLGRRARRRGRGRRRPA
modifications: also: biotin-labeled, position not given here
notes: Dleu2-17aa, 17-amino-acid micropeptide encoded by a short ORF in the first exon of the mouse lncRNA Dleu2; also called Biotin-Dleu2-17aa; biotinylated Dleu2-17aa
